Experimental findings from the Immune Epitope Database (IEDB) are described below.

For one assay, the target named is HLA-A*80:01. In words: IEDB peptide-MHC binding, purified MHC/direct/fluorescence; filed as Kd, often an IC50 or EC50 that approximates it; ≥ and ≤ were set here for values at or beyond the usual limits of such assays.
For assay [1], the target named is HLA-A*01:01. Described as above.
The target in assay [2] is HLA-A*01:01. As to the kind of experiment: IEDB peptide-MHC binding, purified MHC/competitive/radioactivity; filed as Kd, often an IC50 or EC50 that approximates it; ≥ and ≤ were set here for values at or beyond the usual limits of such assays. Conditions: source organism: Dengue virus 4 Philippines/H241/1956.
Assay [3] addresses HLA-A*02:01. The description is as above.
For a further assay, the target named is HLA-A*02:06. Described as above.
The target of the next assay is HLA-A*02:17. Described as above.
Assay [4] concerns the target HLA-A*02:01. As to the kind of experiment: IEDB peptide-MHC binding, purified MHC/competitive/fluorescence; filed as Kd, often an IC50 or EC50 that approximates it; ≥ and ≤ were set here for values at or beyond the usual limits of such assays.
The target of assay [5] is HLA-A*02:03. The description is as above.
The target in the next assay is HLA-A*02:11. Described as above.
A further assay addresses HLA-A*02:12. The description is as above.
The target of the next assay is HLA-A*02:16. Described as above.
The next assay concerns the target HLA-A*02:19. The assay is described as above.
In a further assay the target is HLA-A*03:01. The assay is described as above. Conditions: source organism: Entamoeba histolytica HM-1:IMSS.
For another assay, the target named is HLA-A*24:03. The assay is described as above.
The target of a further assay is HLA-A*26:01. The assay is described as above.
Assay [6] has as its target HLA-A*29:02. The description is as above.
Assay [7] has as its target HLA-A*68:02. Described as above.
Another assay deals with HLA-A*69:01. The description is as above.
The target of a further assay is HLA-B*15:01. The description is as above.
The target in another assay is HLA-B*15:17. The description is as above. As to conditions: source organism: Entamoeba histolytica HM-1:IMSS.
Another assay deals with HLA-B*18:01. Described as above.
In a further assay the target is HLA-B*27:03. The assay is described as above.
The next assay deals with HLA-B*39:01. The description is as above.
The target of another assay is HLA-B*46:01. Described as above.
The target in the next assay is HLA-B*51:01. Described as above.
The target in another assay is HLA-B*57:01. The description is as above.
Assay [8] concerns the target HLA-A*68:02. In words: IEDB peptide-MHC binding, purified MHC/competitive/radioactivity; filed as Kd, often an IC50 or EC50 that approximates it; ≥ and ≤ were set here for values at or beyond the usual limits of such assays.
The target in a further assay is HLA-A*31:01. In words: IEDB peptide-MHC binding, purified MHC/competitive/fluorescence; filed as Kd, often an IC50 or EC50 that approximates it; ≥ and ≤ were set here for values at or beyond the usual limits of such assays. As to conditions: source organism: Cryptosporidium parvum Iowa II.
The target of assay [9] is HLA-A*02:03. In words: IEDB peptide-MHC binding, purified MHC/competitive/radioactivity; filed as Kd, often an IC50 or EC50 that approximates it; ≥ and ≤ were set here for values at or beyond the usual limits of such assays. As to conditions: source organism: Dengue virus 2 Jamaica/1409/1983.
The target in assay [10] is HLA-A*29:02. As to the kind of experiment: IEDB peptide-MHC binding, purified MHC/direct/fluorescence; filed as Kd, often an IC50 or EC50 that approximates it; ≥ and ≤ were set here for values at or beyond the usual limits of such assays. As to conditions: source organism: Mammarenavirus juninense.
The mark [11] stands for this setting: source organism: Yersinia pestis.
[12] abbreviates: source organism: Mammarenavirus lassaense.
Where [13] appears, read: source organism: Dengue virus 4 Philippines/H241/1956.
[14] abbreviates: source organism: Entamoeba histolytica HM-1:IMSS.
The mark [15] stands for this setting: source organism: Cryptosporidium parvum Iowa II.
Where [16] appears, read: source organism: Escherichia coli O157:H7.
[17] abbreviates: source organism: Dengue virus 2 Jamaica/1409/1983.
Setting [18] is: source organism: Mammarenavirus juninense.

AIDLDPVVY gave an equilibrium dissociation constant (Kd) in the assay with HLA-A*80:01 (source organism: Dengue virus 1 Singapore/S275/1990) not below 5000 nM.

On to DLRPYGLIK, for which the Kd with HLA-A*01:01 [1] (setting [11]) and in the assay with HLA-A*80:01 (setting [11]) was not below 20000 nM in each case.

As to DTPGERNPY, the dissociation constant (Kd) in the assay with HLA-A*01:01 [1] (setting [12]) and with HLA-A*80:01 (setting [12]) was not below 20000 nM in each case.

Consider FIDGISLGL, for which the Kd with HLA-A*01:01 [2] is 1520 nM; with HLA-A*02:01 [3] (setting [13]), 18.9 nM; with HLA-A*02:06 (setting [13]), 32.4 nM; with HLA-A*02:17 (setting [13]) it was 56.1 nM.

Turning to IEAKINVAD, the Kd in the assay with HLA-A*02:01 [4] (setting [14]), in the assay with HLA-A*02:03 [5] (setting [14]), with HLA-A*02:11 (setting [14]), in the assay with HLA-A*02:12 (setting [14]), with HLA-A*02:16 (setting [14]) and with HLA-A*02:19 (setting [14]) was not below 20000 nM in each case. In addition, the Kd with HLA-A*03:01, with HLA-A*24:03 (setting [14]), with HLA-A*26:01 (setting [14]), with HLA-A*29:02 [6] (setting [14]), in the assay with HLA-A*68:02 [7] (setting [14]) and with HLA-A*69:01 (setting [14]) was not below 20000 nM throughout. Further, the Kd in the assay with HLA-B*15:01 (setting [14]) was not below 20000 nM; with HLA-B*15:17 it was not below 20000 nM; with HLA-B*18:01 (setting [14]) it was 389 nM; with HLA-B*27:03 (setting [14]) it was not below 20000 nM; in the assay with HLA-B*39:01 (setting [14]), not below 20000 nM; with HLA-B*46:01 (setting [14]), not below 20000 nM. The Kd with HLA-B*51:01 (setting [14]) and with HLA-B*57:01 (setting [14]) was not below 20000 nM in each case.

As to LAIDRDDLY, the Kd with HLA-A*29:02 [6] (source organism: Mycobacterium tuberculosis variant bovis BCG str. Pasteur 1173P2) was 5.3 nM.

Regarding MTLWYMWQV, the Kd with HLA-A*02:01 [3] (setting [13]) amounted to 13.7 nM; in the assay with HLA-A*02:06 (setting [13]) it was 2.67 nM; in the assay with HLA-A*02:17 (setting [13]), 27.4 nM; in the assay with HLA-A*68:02 [8] (setting [13]) it was 11.3 nM.

Take MVLAFITFL: the dissociation constant (Kd) with HLA-A*02:01 [3] (setting [13]) was 16.9 nM; with HLA-A*02:06 (setting [13]), 3.45 nM; in the assay with HLA-A*02:17 (setting [13]), 3.99 nM; with HLA-A*68:02 [8] (setting [13]), 19.2 nM.

Take RGRKPIFRK: the Kd with HLA-A*02:01 [4] (setting [15]), with HLA-A*02:03 [5] (setting [15]), in the assay with HLA-A*02:11 (setting [15]), with HLA-A*02:12 (setting [15]), with HLA-A*02:16 (setting [15]) and with HLA-A*02:19 (setting [15]) was not below 20000 nM in each case. In addition, the Kd with HLA-A*24:03 (setting [15]) is not below 20000 nM; with HLA-A*26:01 (setting [15]), not below 20000 nM; with HLA-A*29:02 [6] (setting [15]) it was not below 20000 nM; with HLA-A*31:01 it was 53.2 nM; in the assay with HLA-A*68:02 [7] (setting [15]) it was not below 20000 nM; with HLA-A*69:01 (setting [15]), not below 20000 nM. Further, the Kd with HLA-B*15:01 (setting [15]), with HLA-B*18:01 (setting [15]), in the assay with HLA-B*27:03 (setting [15]), with HLA-B*39:01 (setting [15]), with HLA-B*46:01 (setting [15]) and with HLA-B*51:01 (setting [15]) was not below 20000 nM in each case. This sequence had a Kd with HLA-B*57:01 (setting [15]) not below 20000 nM.

On to RVIRTVREK, for which the Kd in the assay with HLA-A*01:01 [1] (setting [16]) and in the assay with HLA-A*80:01 (setting [16]) was not below 20000 nM throughout.

In the case of TMTDDIGMGV, the Kd with HLA-A*02:01 [3] (setting [17]) worked out at 21.3 nM; with HLA-A*02:03 [9] it was 7.59 nM; in the assay with HLA-A*02:06 (setting [17]), 5.64 nM; in the assay with HLA-A*02:17 (setting [17]) it was 313 nM; in the assay with HLA-A*68:02 [8] (setting [17]) it was 116 nM.

In the case of VSDRPVMRY, the results for the Kd with HLA-A*01:01 [1] (setting [18]), with HLA-A*29:02 [10] and with HLA-A*80:01 (setting [18]) were 185 nM, 117 nM and 360 nM, respectively.

For the sequence YVVIAILTV, the dissociation constant Kd with HLA-A*02:01 [3] (setting [17]) was determined as 254 nM; in the assay with HLA-A*02:06 (setting [17]) it was 12.4 nM; with HLA-A*02:17 (setting [17]), 509 nM; with HLA-A*68:02 [8] (setting [17]) it was 26.3 nM.
